{
  "source": "patent US20230203138A1",
  "target": "SARS-CoV-2 spike trimer (S trimer), soluble ectodomain (SARS-CoV-2), P0DTC2",
  "experiment": "cryo-EM structure of Fab 2-4 with S trimer",
  "settings": "remark: other sources report otherwise",
  "data": [
    {"binder": "Fab of antibody 2-4 (Fab, V domains shown) VH: QVQLVQSGAEVKKPGASVKVSCKASGYTFTGYYMHWVRQAPGQGLEWMGWINPNSGGTNYTQMFQGRVTMTRDTSISTAYMEVSRLRSDDTAVYYCARDRSWAVVYYYMDVWGKGTTVTVSS VL: QSALTQPPSASGSPGQSVTISCTGTSSDVGGYNYVSWYQQHPGKAPKLMIYEVSKRPSGVPDRFSGSKSGNTASLTVSGLQAEDEADYYCSSYAGSNNLVFGGGTKLTVL", "values": [
      {"measurement": "buried surface area of the epitope on RBD", "value": 751, "unit": "A2"}
    ]}
  ]
}
